Measured values from the supplement of paper PMC10724198.

Assays:
Saccharomyces cerevisiae [1] = test: protein stability index of tFT-peptide fusion in wild type (PSI (0-1 scale)); higher = more stable (slower turnover); details: genetic background: wild type
Experimental: (§1)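 MPS profiling in S. cerevisiae of two library types built from selected 12-aa C-degron peptides (IN1, IN2, LN1, LN3, VN2, R1-R5, W1-W3, Atg1 and Rpa12 C-termini): saturation mutagenesis libraries and C-terminal +1 capping libraries (13 aa). Each peptide is fused to the C-terminus of a sfGFP-mCherry timer, after a GGGS linker. Cells are FACS-sorted into 8 mCherry/sfGFP bins and sequenced. PSI runs from 0 (unstable) to 1 (stable), measured once in wild type and in the das1Δ or doa10Δ background.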

Saccharomyces cerevisiae [2] = test: protein stability index of tFT-peptide fusion in deletion strain of DAS1 (PSI (0-1 scale)); higher = more stable (slower turnover)
Experimental: as §1
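Throughout, for protein stability index of tFT-peptide fusion in deletion strain of DAS1: PSI is a weighted mean of each variant's read distribution over the sorted stability bins, computed only for variants having over 10 reads in total.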
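Throughout, for protein stability index of tFT-peptide fusion in wild type: PSI derived as read-weighted mean over the 8 sorting bins, only variants exceeding 10 total reads kept, mCherry placed adjacent to the peptide and sfGFP distal.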

Sequence	protein stability index (Saccharomyces cerevisiae [1])	protein stability index (Saccharomyces cerevisiae [2])
CTSCGYKFRTNC	0.224	0.699
PSLAASFCRVVG	0.618	0.645
VRGAVGGFRLVG	0.661	0.677
AWWRVGLWRGAS	0.504	0.68
CKILRQKMNHQN	0.165	0.675
CTSCVYKFRTNN	0.164	0.675
ARWRVGLWRGES	0.681	0.695
VRGAVGGWQLVG	0.28	0.689
CTFCGYKFRTNN	0.253	0.719
NTSCGYKFRTNN	0.217	0.68
VSGAVGGWRLVG	0.143	0.672
PDKRFHLIKLLN	0.113	0.672
ARWRVGLWRGAL	0.596	0.682
RLIQPGPVQFLN	0.102	0.611
KKHCKGQKQKIN	0.13	0.637
CTSCGYKFWTNN	0.299	0.75
RLHQPLPVQFLN	0.06	0.581
QLIQPLPVQFLN	0.0736	0.616
FSMRWTFRQWVN	0.109	0.427
LVNYLSCVACIN	0.0691	0.259
ARWRVGLWWGAS	0.556	0.679
LVVYLSFVACIN	0.0293	0.116
ARWRVGLWCGAS	0.567	0.561
VRGAVGGWMLVG	0.456	0.698
PDKRNHQIKLLN	0.127	0.609
RLIQPLPVHFLN	0.0347	0.587
ARWRVGLWRRAS	0.093	0.673
MSLAASFWRVVG	0.124	0.67
ARWRVGLWRGASA	0.665	0.672
